Key:
HSP70 (ADP-bound) = HSP70 (ADP-bound) (human); assay: ITC, ADP
HSP70 (ATP-bound) = HSP70 (ATP-bound) (human); assay: ITC, ATP
HSP70 (ATP-bound) (human), sequence (chain, as listed by the source): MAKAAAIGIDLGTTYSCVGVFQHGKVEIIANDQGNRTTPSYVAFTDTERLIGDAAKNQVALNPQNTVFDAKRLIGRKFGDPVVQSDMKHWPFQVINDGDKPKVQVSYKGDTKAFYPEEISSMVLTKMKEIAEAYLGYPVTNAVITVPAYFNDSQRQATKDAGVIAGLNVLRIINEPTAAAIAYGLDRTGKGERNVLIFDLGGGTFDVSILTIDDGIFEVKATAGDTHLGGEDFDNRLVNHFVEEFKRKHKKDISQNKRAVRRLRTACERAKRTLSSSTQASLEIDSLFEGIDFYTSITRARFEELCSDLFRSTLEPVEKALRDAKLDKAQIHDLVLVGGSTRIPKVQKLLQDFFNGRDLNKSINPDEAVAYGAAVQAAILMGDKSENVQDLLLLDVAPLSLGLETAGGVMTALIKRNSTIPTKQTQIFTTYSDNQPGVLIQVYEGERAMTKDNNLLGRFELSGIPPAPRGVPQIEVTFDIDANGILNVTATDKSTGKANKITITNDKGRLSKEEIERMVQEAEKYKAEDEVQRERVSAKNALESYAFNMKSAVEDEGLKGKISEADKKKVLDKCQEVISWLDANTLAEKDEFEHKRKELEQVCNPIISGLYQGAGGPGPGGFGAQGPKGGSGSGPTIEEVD

HSP70 (ADP-bound) (human), sequence (chain, as listed by the source): as above

Kd (HSP70 (ADP-bound)): 10 µM
Kd (HSP70 (ATP-bound)): 1.25 mM
Binder: NRLLLTG [NRLLLTG peptide]

Source: US10010560 (dated 2018)
